Where a SMILES comes first, the peptide text is derived from it. Bridges are numbered along the chain shown (N, C = ends). Where no end group is shown, it is not given here.
Tests used:
Aminopeptidase N (APN) = target: T1, Aminopeptidase N (APN) (Rattus norvegicus, UniProt P15684); test: Inhibition of APN aminopeptidase activity, increasing peptide concentrations; type: biochemical
T1 sequence (P15684 33-965 limits assumed): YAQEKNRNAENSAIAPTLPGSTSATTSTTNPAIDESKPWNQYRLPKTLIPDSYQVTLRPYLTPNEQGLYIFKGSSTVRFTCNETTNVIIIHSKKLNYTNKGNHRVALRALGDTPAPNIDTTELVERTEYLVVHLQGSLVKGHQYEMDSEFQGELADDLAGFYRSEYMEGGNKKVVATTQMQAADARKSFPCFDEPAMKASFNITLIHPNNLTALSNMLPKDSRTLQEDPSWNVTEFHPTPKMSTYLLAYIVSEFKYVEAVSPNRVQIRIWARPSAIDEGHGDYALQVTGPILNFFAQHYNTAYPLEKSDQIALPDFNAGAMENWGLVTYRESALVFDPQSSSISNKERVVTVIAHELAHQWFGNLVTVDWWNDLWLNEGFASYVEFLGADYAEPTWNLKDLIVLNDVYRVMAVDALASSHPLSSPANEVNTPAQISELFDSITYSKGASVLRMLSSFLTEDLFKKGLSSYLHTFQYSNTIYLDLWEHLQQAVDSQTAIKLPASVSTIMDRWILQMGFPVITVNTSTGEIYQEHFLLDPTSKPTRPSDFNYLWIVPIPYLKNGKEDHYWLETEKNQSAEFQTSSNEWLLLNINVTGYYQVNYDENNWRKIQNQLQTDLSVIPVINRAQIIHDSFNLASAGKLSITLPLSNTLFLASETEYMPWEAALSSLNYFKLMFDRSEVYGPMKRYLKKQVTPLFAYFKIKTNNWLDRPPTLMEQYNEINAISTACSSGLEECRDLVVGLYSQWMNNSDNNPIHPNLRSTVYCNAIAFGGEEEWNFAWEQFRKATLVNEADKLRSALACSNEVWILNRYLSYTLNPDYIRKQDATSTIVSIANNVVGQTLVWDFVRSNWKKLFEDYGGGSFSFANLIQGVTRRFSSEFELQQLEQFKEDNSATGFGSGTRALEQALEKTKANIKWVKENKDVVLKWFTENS

[1] = tested on: APN from Aeromonas proteolytica; settings: ref [35]; cited from earlier work
CPNGRC = target: T2, CPNGRC (disulfide 1-6 (inferred)); test: enzyme inhibition assay
T2 chain: CPNGRC

CNGRC = target: T3, CNGRC (disulfide 1-5 (inferred)); test: enzyme inhibition assay
T3 chain: CNGRC

[2] = target: the molecule itself; test: analytical ultracentrifugation
APN = target: T4, APN (Rattus norvegicus, UniProt P15684); test: Analytical ultracentrifugation, sedimentation equilibrium; type: binding; settings: 3 nM enzyme
T4 sequence (P15684 33-965 limits assumed): T1 sequence (P15684 33-965 limits assumed)

N=C(N)NCCC[C@@H]1NC(=O)CNC(=O)[C@H](CC(N)=O)NC(=O)[C@@H]2CCCN2C(=O)[C@@H](N)CSSC[C@@H](C(=O)O)NC1=O [CPNGRC] (H-CPNGRC-OH; disulfide 1-6)
IC50 (Aminopeptidase N (APN)): 10 µM

CC(C)C[C@H](NC(=O)[C@@H](O)[C@H](N)Cc1ccccc1)C(=O)O [bestatin]
affinity for APN from Aeromonas proteolytica [1]: slow binding nanomolar affinity

B1: Aminopeptidase N (APN/CD13) ECD (protein)
chain: T1 sequence (P15684 33-965 limits assumed)
IC50 (CPNGRC): ~10 µM | IC50 (CNGRC): ~300 µM | Kd [2]: 1.6 µM

B2: APN: Aminopeptidase N isolated from rat renal brush-border membranes, treated with papain to solubilize the extracellular domains (protein, UniProt P15684 33-965, looked up)
extracellular domain: T1 sequence (P15684 33-965 limits assumed)
modifications: extracellular domain papain-solubilized
APN in the dimeric state at assay concentration (APN): less than 0.4%

From article PMC2890305 (Chemical biology & drug design, 2010)
